# Data from US20050282239A1, “Cell-permeable enzyme activation reporter that can be loaded in a high throughput and gentle manner” (priority 2003, published 2005).
# Ends that are not written are not given here.
# Experiments:
# PKB [1] = molecular target: T1, PKB (Homo sapiens, UniProt P31749); assay: CACE: intracellular phosphorylation of PKB substrate in HT1080 cells; format: cell-based
# T1 construct: endogenous in cells; host or cells: HT1080 cells; HT1080/PTEN cells (engineered to over-express wild type PTEN, PKB itself not transfected)
# Description: Since the properties of F-PKB (SEQ ID NO:17) microinjected into HT1080 cells have been well characterized, experiments were undertaken to compare the fate of F-PKB-C loaded as F-PKB-C-SS-TAT (SEQ ID NO:16) into HT1080 cells to that of the microinjected F-PKB (SEQ ID NO:17). When microinjected, the percentage of phosphorylated F-PKB depended on the relative, steady-state levels of both the kinases and phosphatases. This observation is shown in electrophoretic traces from cells loaded with F-PKB-C-SS-TAT (1 μM) (FIG. 6). A single asterisk denotes the migration time of F-PKB, and a double asterisk denotes the migration time of phosphorylated F-PKB from cells on the day of the experiment.
# (§1) CACE has been previously described (Sims, Meredith et al. 1998; Meredith, Sims et al. 2000; Li, Wu et al. 2001). Briefly, cells were placed on an inverted fluorescence microscope stage (Diaphot 300, Nikon, Japan) and maintained at 37° C. with an objective heater (Bioptechs; Butler, Pa.) prior to lysis unless stated otherwise. The cells were continually washed with ECB maintained at 37° C. (unless otherwise indicated) with a flow rate of 1 ml/min and a total chamber volume of 0.5 ml. The inlet of a capillary (30 μm I.D., 360 μm O.D., 75 cm long) was positioned 10 μm above the cell. The inverted microscope was coupled to a pulsed Nd:YAG laser and a CE system (Sims, 1998). The CACE-based assay was performed as previously described (U, 2001; Meredith, 2000). Cells were always maintained in ECB when analyzed by the CACE.
# CE was performed as described (Sims, Meredith et al. 1998), with the following modifications. The inner walls of the capillaries (30 μm I.D., 360 μm O.D.) were coated with poly(acrylate) (Wang, Hu et al. 2003). The outlet of the capillary was held at a negative potential of 18-21 kV, and the inlet reservoir was held at ground potential. Under these conditions, the current through the capillary was typically ˜36 μA. Solutions of standards were loaded into the capillary by gravitational fluid flow. The loaded volume was calculated from Poiseulle's equation and from contributions by spontaneous fluid displacement and diffusion (Weinberger, 2000; Fishman, 1994; Crank, 1989). To estimate the number of moles of peptide in an unknown solution or within a cell, the peak area from the electrophoretic trace of the solution or the cell was compared to that of a standard of known concentration separated by electrophoresis on the same day. A 1 pL cell volume and 100% peptide recovery was assumed in calculating intracellular peptide concentration (Meredith, Sims et al. 2000; Sims, Meredith et al. 1998). Analytes were detected by laser-induced fluorescence (Sims, Meredith et al. 1998).
# Cells were incubated at room temperature for 5 minutes in 1% bovine serum albumin (BSA) in ECB, washed in ECB, and then incubated for 5 minutes at room temperature with a substrate conjugated to TAT(49-57). The cells were then washed with 1% BSA in ECB. Cells loaded with the disulfide conjugate were placed in supplement DMEM (10% FCS, 4 mM L-glutamine, 100 U/mL penicillin and 100 μg/mL streptomycin) and incubated at 37° C. in 5% CO2 for 20 minutes. Cells loaded with the photolabile conjugate were placed in supplemented DMEM and incubated at 37° C. in 5% CO2 for 10 minutes (unless stated otherwise) and were then illuminated with a UV light source for 10 seconds (a radiant energy/unit area of 2 kJ/m^2). The supplemented DMEM was exchanged and the cells were incubated another 10 minutes at 37° C. in 5% CO2. Just prior to analysis the cells were washed into ECB.
# PKB [2] = molecular target: T1, PKB; assay: CACE: intracellular phosphorylation of PKB substrate in HT1080/PTEN cells; format: cell-based; details: 1 μM extracellular, UVA 10 s
# Description: Previous investigators developed cleavable PTD-cargo conjugates by engineering a disulfide linkage between the two domains (Stein, Weiss et al. 1999; Hallbrink, Floren et al. 2001). […] TAT(49-57)(SEQ ID NO:2) was conjugated via a disulfide bond to cysteines added to substrate peptides for CamKII (F-CamKII-C; SEQ ID NO:13) or PKB (F-PKB-C; SEQ ID NO:14), denoted F-CamKII-C-SS-TAT (SEQ ID NO:15) and F-PKB-C-SS-TAT (SEQ ID NO:16), respectively. The TAT(49-57)-Conjugated substrates were incubated with cells (HT1080 or HT1080/PTEN cells) and the contents of the cells were analyzed by the CACE. […]
# CACE has been previously described (Sims, Meredith et al. 1998; Meredith, Sims et al. 2000; Li, Wu et al. 2001). Briefly, cells were placed on an inverted fluorescence microscope stage (Diaphot 300, Nikon, Japan) and maintained at 37° C. with an objective heater (Bioptechs; Butler, Pa.) prior to lysis unless stated otherwise. […] Cells were always maintained in ECB when analyzed by the CACE.
# (§2) CE was performed as described (Sims, Meredith et al. 1998), with the following modifications. […] The loaded volume was calculated from Poiseulle's equation and from contributions by spontaneous fluid displacement and diffusion (Weinberger, 2000; Fishman, 1994; Crank, 1989). […] Analytes were detected by laser-induced fluorescence (Sims, Meredith et al. 1998). […]
# HT1080 cells = assay: CACE single-cell analysis: loading and release of cargo; format: cell-based, human
# [3] = In vitro UVA photocleavage of photolabile conjugate, CE quantification; format: physicochemical
# Description: Therefore, we designed a second detachable linker between the TAT(49-57) and the substrate peptide. An Fmoc-aminoethyl photolabile moiety was inserted between the fluorescently-labeled substrate and the TAT(49-57) sequences using standard Fmoc peptide chemistry. The relative order of the different portions of the conjugate was: fluorescein-substrate-PLL-TAT(49-57). Two different substrate peptides were conjugated to TAT(49-57) to form F-PKB-PLL-TAT (SEQ ID NO:18) and F-CamKII-PLL-TAT (SEQ ID NO:19). To determine the time and irradiation intensity needed to photocleave the conjugated peptides, standard solutions (1 nM or 10 μM) of F-PKB-PLL-TAT (SEQ ID NO:18) were illuminated with long-wavelength UV light (UVA) for varying times. The sample was then loaded into a capillary and electrophoresis performed. The concentration of the released substrate peptide was quantified from its fluorescence. At the irradiation intensity used, maximal cleavage of the substrate peptide from the TAT(49-57) sequence was achieved within 20 minutes. […] After a 10 s exposure, 2% of the conjugate was photoreleased. […] The fluorescein was not substantially photobleached by the UVA-induced cleavage since the amount of fluorescent peptide detected after a 4 h irradiation was almost identical to that after 20 min of UVA exposure.
# The photolabile TAT(49-57) conjugate (e.g., SEQ ID NOs:18 or 19) (1 nM or 10 μM in ECB) was illuminated with ultraviolet A (UVA; 20 mW/cm^2) using a 365 nm light source (UVP Blak-Ray B100AP; Upland, Calif.). […] for the photolabile group was 365 nm. After photo-release, the fluorescent substrate was resolved by electrophoresis and then quantified by CE. Detection wavelengths were: excitation, 488 nm; emission, 505-565 nm.
# A known concentration of the photo-cleavable reporter was placed in an uncapped, shallow vial. The sample was then illuminated with the UV light source for varying times as described above. A small amount of the sample was then removed and the amount of released peptide was quantified using CE. […]
# CamKII = assay: CACE: intracellular phosphorylation of CamKII substrate in HT1080 cells; format: cell-based, human
# Description: To determine whether the detached peptide substrates were in the cytosol and accessible to kinases, the intracellular phosphorylation of the translocated cargo was studied. In the initial experiment, F-CamKII-C-SS-TAT (SEQ ID NO:15) at 750 nM extracellular concentration was loaded into HT1080 cells. The cells were incubated with ionomycin (500 nM) for 15 min to increase the intracellular concentration of free Ca^2+ and activate the CamKII enzyme (Worrell and Frizzell 1991). […] The migration time of the second peak was identical to that of phosphorylated F-CamKII-C loaded into cells. 52+3% (mean±SEM) (n=5) of the F-CamKII-C was phosphorylated as determined by comparison of the peak areas. At least half of the F-CamKII-C was in the cytosol and accessible to the kinase. For these cells the average number of moles per cell was ˜2×10^−20 which is equivalent to a cytosolic concentration of ˜100 nM.
# as §1, §2
# T1 sequence (P31749 whole entry): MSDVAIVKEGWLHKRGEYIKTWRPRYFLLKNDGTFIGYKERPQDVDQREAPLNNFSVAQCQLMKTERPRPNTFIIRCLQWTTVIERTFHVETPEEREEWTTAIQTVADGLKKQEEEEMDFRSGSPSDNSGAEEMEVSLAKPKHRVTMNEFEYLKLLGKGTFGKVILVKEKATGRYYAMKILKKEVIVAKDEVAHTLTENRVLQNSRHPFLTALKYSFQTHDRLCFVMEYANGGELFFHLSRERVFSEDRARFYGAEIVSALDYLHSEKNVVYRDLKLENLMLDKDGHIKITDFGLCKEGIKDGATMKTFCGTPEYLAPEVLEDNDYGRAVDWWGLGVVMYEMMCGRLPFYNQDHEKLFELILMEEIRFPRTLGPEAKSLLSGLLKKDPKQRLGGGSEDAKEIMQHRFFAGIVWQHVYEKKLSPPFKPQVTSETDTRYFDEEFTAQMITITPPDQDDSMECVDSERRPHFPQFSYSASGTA
substance,measurement,setting,value
"Gly Arg Pro Arg Ala Ala Thr Phe Ala Glu Gly (GRPRAATFAEG-NH2; not fully specified (N-terminus); printed as Gly Arg Pro Arg Ala Ala Thr Phe Ala Glu Gly; also: fluorescein label, position not given here) [F-PKB, fluorescein-labeled substrate for protein kinase B]",peptide phosphorylated at steady state,PKB [1]; microinjected,approximately 70%
same,time to steady state of phosphorylation,PKB [1]; microinjected,less than 2 min
"Gly Arg Pro Arg Ala Ala Thr Phe Ala Glu Gly Arg Lys Lys Arg Arg Gln Arg Arg Arg (GRPRAATFAEGRKKRRQRRR-NH2; not fully specified (residue 11, N-terminus); printed as Gly Arg Pro Arg Ala Ala Thr Phe Ala Glu Gly Arg Lys Lys Arg Arg Gln Arg Arg Arg; also: fluorescein, position not given here, photolabile linker, position not given here) [F-PKB-PLL-TAT, fluorescein-PKB substrate-photolabile linker-TAT(49-57)]",F-PKB present in the phosphorylated form,"PKB [1]; 1 μM extracellular, UVA 10 s, n=15",67±7%
same,percentage of phosphorylated F-PKB versus incubation time,"PKB [1]; 1 μM, 37° C.",did not vary with the incubation time
same,time scale on which F-PKB is accessible to kinase,"PKB [1]; 1 μM, 37° C.",< 30 min
same,phosphorylation of F-PKB,"PKB [1]; 1 μM, 4° C.",Essentially no phosphorylation
same,percentage of phosphorylated F-PKB,"PKB [1]; 1 μM, 23° C. and 37° C.",similar
same,phosphorylation of released F-PKB,PKB [2],not seen
same,cytoplasmic concentration of free F-PKB,"HT1080 cells; 1 μM 5 min, 30 min incubation, UVA 10 s",~200 nM
same,average quantity of F-PKB detected per cell,"HT1080 cells; 1 μM 5 min, 30 min incubation, UVA 10 s, n=15",2e-19 ± 9e-20 mol
same,internalization process into the cytosol,"HT1080 cells; 1 μM, 37° C.",complete within one hour
same,total amount of F-PKB detected versus incubation time,"HT1080 cells; 1 μM, 37° C., 5 min adsorption, wash, varying incubation, UVA 10 s",increased over the initial hour of incubation and then stabilized
same,amount of F-PKB measured per cell,"HT1080 cells; 1 μM, 4° C.",reduced
same,amount of F-PKB measured per cell,"HT1080 cells; 1 μM, 23° C. and 37° C.",similar
same,conjugate photoreleased,[3]; 10 s UVA exposure,2%
same,time to maximal cleavage of substrate peptide from TAT(49-57),"[3]; UVA, 1 nM or 10 μM solution",≤ 20 min
same,free substrate peptide,[3]; without UVA illumination,no free substrate peptide could be detected
KKALHRQETVDALCRKKRRQRRR [F-CamKII-C-SS-TAT],average number of moles per cell,"HT1080 cells; 750 nM extracellular, ionomycin-treated cells",~2e-20 mol
same,cytosolic concentration,"HT1080 cells; 750 nM extracellular, ionomycin-treated cells, 1 pL cell volume assumed",~100 nM
same,F-CamKII-C phosphorylated (mean±SEM),"CamKII; 750 nM extracellular, ionomycin 500 nM 15 min, n=5",52+3%
KKALHRQETVDALCRKKRRQRRR [F-CamKII-PLL-TAT],average concentration of F-CamKII in the cytosol,HT1080 cells; 300 nM extracellular,180 nM
same,detectable F-CamKII per cell,"HT1080 cells; 300 nM extracellular, n=3",1.8e-19 ± 1.9e-19 mol
same,total F-CamKII phosphorylated,"CamKII; 300 nM extracellular, ionomycin 500 nM 15 min, n=3",67±17%
"Lys Lys Ala Leu His Arg Gln Glu Thr Val Asp Ala Leu Cys (KKALHRQETVDALC-NH2; not fully specified (N-terminus); printed as Lys Lys Ala Leu His Arg Gln Glu Thr Val Asp Ala Leu Cys; also: fluorescein label, position not given here) [F-CamKII-C, fluorescein-labeled CamKII substrate with added cysteine]",phosphorylation in unstimulated cells,"CamKII; HT1080 cells, no constitutive CamKII activity",little to no phosphorylation
